The values below come from PMC2141644 (The Journal of Cell Biology, 1997).

In the assay the target is F-actin (actin filaments) from rabbit skeletal muscle (rabbit, UniProt P68135 1-377). Description: co-sedimentation.

B1: GST-dem (GST fused to abLIM amino acids 585-778) (domain or fragment)
chain: RSSGREEDDEELLRRRQLQEEQLMKLNSGLGQLILKEEMEKESRERSSLLASRYDSPINSASHIPSSKTASLPGYGRNGLHRPVSTDFAQYNSYGDVSGGVRDYQTLPDGHMPAMRMDRGVSMPNMLEPKIFPYEMLMVTNRGRNKILREVDRTRLERHLAPEVFREIFGMSIQEFDRLPLWRRNDMKKKAKLF
Broadly, the Kd is the constant that tells how readily two partners part at equilibrium. For the molecule B1, the dissociation constant Kd was about 2600 nM and the “stoichiometry N” value is ~1.1 actin molecules per GST–abLIM monomer.
